# Laboratory results as given in publication PMC9040721.
# Experiments:
# [1] = target: recombinant full-length TRP120, His-tagged (rTRP120-FL) (E. chaffeensis) (UniProt Q2GI62); experiment: SPR; Biacore T100, NTA sensor chip; His-tagged TRP120-FL, TRP120-TR or TRX (0.1 uM) immobilised; Fc-tagged Notch-1 LBR as analyte, 2-fold dilutions 800 nM to 25 nM; 25 C; 100 mM sodium phosphate pH 7.4, 400 mM NaCl, 40 uM EDTA; 1:1 Langmuir model
# [2] = target: recombinant TRP120 tandem repeat domain, His-tagged (rTRP120-TR) (E. chaffeensis) (UniProt Q2GI62); experiment: as above
substance,measurement,setting,value
"human rNotch-1 Fc Chimera Protein, CF (R&D Systems); Fc-tagged Notch-1 ligand-binding region (LBR) (from UniProt P46531 19-2555) (Fc fusion)",Kd,[1],100 nM
same,Kd,[2],120 nM
